Experimental data reported in paper PMC3399532 (Prion, 2012).

Target: truncated MoPrP(89–230) (mouse, UniProt P04925 89-230)
Assay: ELISA

B1: mouse (Mo) Dpl (26–155) (domain or fragment)
chain: ARGIKHRFKWNRKVLPSSGGQITEARVAENRPGAFIKQGRKLDIDFGAEGNRYYAANYWQFPDGIYYEGCSEANVTKEMLVTSCVNATQAANQAEFSREKQDSKLHQRVLWRLIKEICSAKHCDFWLERG
binding result: binds
